Like-named read-outs stand apart in the source and are kept apart here.
B1: 3D1-CPI (antibody, V domains shown)
VH: EVQLQQSGPELVKPGASVKMSCKASGYTFSDYFMKWVKQSHGKRLEWIGDINPNNGETFYNHHFKGKATLTIDKSSSTAYMQLNSLTSDDSAVYYCARPRRGNAMDFWGQGTSVTVSS
VL: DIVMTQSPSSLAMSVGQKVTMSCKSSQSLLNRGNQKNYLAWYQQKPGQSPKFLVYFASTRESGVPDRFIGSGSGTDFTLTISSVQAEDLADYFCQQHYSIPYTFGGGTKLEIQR
modifications: CPI agent through an AcLysValCitPABC linker, DAR ~2; site not stated for this antibody
B2: 20D7-CPI (antibody, V domains shown)
VH: EVQLVESGGGLVQPGGSLRLSCAASGYSITDFLMYWVRQAPGKGLEWVAWIDPEDGETKYAQKFQSKARFTISRDNAKNSLYLQMNSLRAEDTAVYYCARWGYITDYFYGGFTYWGRGTLVTVSS
VL: DIQMTQSPPVLSASVGDRVTLSCKASQNINKNLDWYQQKHGEAPKLLIYHTNTLQMGIPSRFSGSGSGTDYALTITSLQPEDVATYYCYQYNSGPTFGAGTKLELRR
modifications: CPI agent through an AcLysValCitPABC linker, DAR ~2; site not stated for this antibody
B3: h18G3-AcLysValCitPABC-DMAE-CO_CPI-000638314 (antibody, IgG1, V domains shown)
VH: EVQLVESGGGLVQPGGSLRLSCAASGFSLTSGDISWVRQAPGKGLEWVAVIWSGGGTNYGSRLMSRFTISRDNAKNSLYLQMNSLRAEDTAVYYCARDWGNFYFDYWGQGTLVTVSS
VL: DIQMTQSPSSLSASVGDRVTITCKSSQSLLSSGTRKNYLAWYQQKPGKAPKLLIYWASTRQSGVPSRFSGSGSGTDFTLTISSLQPEDFATYYCSQSYNLYTFGQGTKLEIKR
modifications: AcLysValCitPABC-DMAE-CO_CPI linker-agent conjugated site-specifically at Q296 (LLQG tag), DAR ~2
B4: 18G3 conjugated to iPr-calicheamicin (antibody, V domains shown)
VH: B3 VH
VL: B3 VL
modifications: iPr-calicheamicin conjugated; linker and site not stated
B5: 18G3 conjugated to CTI (glucuronide) (antibody, V domains shown)
VH: B3 VH
VL: B3 VL
modifications: CTI (glucuronide) agent conjugated; linker and site not stated
B6: 16D6-CPI (antibody, V domains shown)
VH: QVQLKESGPGLVAPSQSLSITCTVSGFSLTNFDISWIRQPPGKGLEWLGVMWTGGGTNYNSAFMSRLSISRDISKSQVSLKMSSLQTDDTAIYYCVRGDTYFFAMDYWGQGTSVTVSS
VL: DIVMSQSPSSLAVSAGEKVTMSCKSSQSLLSSGTRKNFLSWYQQKTGQSPKLLIYWASTRGSGVPDRFTGSGSGTDFTLTISSVQTEDLAVYYCKQSYNLYTFGGGTKLEIKR
modifications: CPI agent through an AcLysValCitPABC linker, DAR ~2; site not stated for this antibody

Tests used:
Experiment in all cases: cell-based or functional assay
[1] = target: T1, CD123 (alpha chain of the interleukin-3 receptor) (human, UniProt P26951 19-378)
[2] = target: T1, CD123 (alpha chain of the interleukin-3 …); remark: listed apart in the source
[3] = target: T1, CD123 (alpha chain of the interleukin-3 …); remark: listed apart in the source
[4] = target: T1, CD123 (alpha chain of the interleukin-3 …); remark: listed apart in the source

T1 sequence (P26951 19-378): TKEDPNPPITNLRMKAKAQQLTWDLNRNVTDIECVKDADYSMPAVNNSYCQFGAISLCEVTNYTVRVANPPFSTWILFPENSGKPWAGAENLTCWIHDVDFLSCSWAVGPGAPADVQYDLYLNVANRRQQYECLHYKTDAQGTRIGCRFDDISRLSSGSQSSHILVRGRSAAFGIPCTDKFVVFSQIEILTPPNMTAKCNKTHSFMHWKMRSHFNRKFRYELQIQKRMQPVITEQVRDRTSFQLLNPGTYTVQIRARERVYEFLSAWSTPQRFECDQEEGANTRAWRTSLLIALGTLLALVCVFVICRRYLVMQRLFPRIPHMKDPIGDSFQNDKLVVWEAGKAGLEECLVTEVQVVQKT

Binder | IC50 (ng/mL), 2D in vitro cytotoxicity (CelltiterGlo, 96 hours), MOLM13 cells (CD123 +++) [1] | IC50 (ng/mL), 2D in vitro cytotoxicity (CelltiterGlo, 96 hours), JVM3 cells (CD123 ++) [1] | IC50 (ng/mL), 2D in vitro cytotoxicity (CelltiterGlo, 96 hours), MV411 cells (CD123 +++) [1] | IC50 (ng/mL), cytotoxicity in MOLM13 cells, IL-3 at 0 ng/ml [2] | IC50 (ng/mL), cytotoxicity in MOLM13 cells, IL-3 at 0.3 ng/ml [2] | IC50 (ng/mL), cytotoxicity in MOLM13 cells, IL-3 at 1 ng/ml [2] | IC50 (ng/mL), cytotoxicity in MV4-11 cells, IL-3 at 0 ng/ml [2] | IC50 (ng/mL), cytotoxicity in MV4-11 cells, IL-3 at 0.3 ng/ml [2] | IC50 (ng/mL), cytotoxicity in MV4-11 cells, IL-3 at 1 ng/ml [2] | also measured
B1 | 0.33 ng/mL |  |  |  |  |  |  |  |  | 
B2 | 0.32 ng/mL |  |  |  |  |  |  |  |  | 
B3 | 0.25 ng/mL | 0.69 ng/mL | 0.41 ng/mL | 0.14 ng/mL | 0.12 ng/mL | 0.14 ng/mL | 1.07 ng/mL | 1.05 ng/mL | 0.21 ng/mL | IC50 (ng/mL), 2D in vitro cytotoxicity (CelltiterGlo, 96 hours), Granta519 cells (CD123 ++) [1]: 0.38 ng/mL; IC50 (ng/mL), 2D in vitro cytotoxicity (CelltiterGlo, 96 hours), NB4 cells (CD123 +) [1]: 63.9 ng/mL; IC50 (ng/mL), 2D in vitro cytotoxicity (CelltiterGlo, 96 hours), OCI-AML3 cells (CD123 +) [1]: 2.65 ng/mL
B4 |  |  |  |  |  |  |  |  |  | IC50 (ng/mL), in vitro cytotoxicity, MOLM13 cells (CD123 +++) [3]: 0.0508 ng/mL; IC50 (ng/mL), in vitro cytotoxicity, MV4-11 cells (CD123 +++) [3]: 0.125 ng/mL
B5 |  |  |  |  |  |  |  |  |  | IC50 (ng/mL), in vitro cytotoxicity, Granta519 cells (CD123 ++) [4]: 0.26 ng/mL; IC50 (ng/mL), in vitro cytotoxicity, JVM3 cells (CD123 ++) [4]: 1.3 ng/mL; IC50 (ng/mL), in vitro cytotoxicity, MOLM13 cells (CD123 +++) [4]: 0.33 ng/mL; IC50 (ng/mL), in vitro cytotoxicity, MV411 cells (CD123 +++) [4]: 0.51 ng/mL; IC50 (ng/mL), in vitro cytotoxicity, NB4 cells (CD123 +) [4]: 38.6 ng/mL; IC50 (ng/mL), in vitro cytotoxicity, OCI-AML3 cells (CD123 +) [4]: 2.58 ng/mL
B6 | 0.22 ng/mL | 0.59 ng/mL | 0.4 ng/mL | 0.23 ng/mL | 0.23 ng/mL | 0.19 ng/mL | 1.25 ng/mL | 1.13 ng/mL | 1.13 ng/mL | 
